According to doi:10.1101/2024.04.06.588283:

Target: MBP-PrLD (C-terminal half of FCA containing prion-like domains) (Arabidopsis)
Assay: SEC-MALS

MBP-PrLD (C-terminal half of FCA containing prion-like domains) (domain or fragment)
stoichiometry N: > 100 molecules
